From publication doi:10.1101/112029

Target: untagged murine saposin A (SapA), wild type (murine)
Test: crystal structure

Question: “untagged murine saposin A (SapA), wild type (natural protein)” was tested. Which stoichiometry N did it give?
Answer: The stoichiometry N was 2.
